Positions of bridges follow the written chain, without caps; N, C: chain ends. No end group written: not given here.
T1: hu-IL-2Rβ subunit (human, UniProt P14784 27-240, limits assumed)
T1 construct: also called human interleukin-2 receptor subunit β; CD122
T1 sequence (looked up): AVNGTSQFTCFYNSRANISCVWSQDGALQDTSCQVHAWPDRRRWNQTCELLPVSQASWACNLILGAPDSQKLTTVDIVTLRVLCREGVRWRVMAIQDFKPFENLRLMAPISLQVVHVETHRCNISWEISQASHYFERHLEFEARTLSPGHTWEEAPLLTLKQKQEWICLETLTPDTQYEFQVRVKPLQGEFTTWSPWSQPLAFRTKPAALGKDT


target: T1, hu-IL-2Rβ subunit; test: phage ELISA competition assay

Row | Binder | IC50
1 | WRPCWRAYLGELCDLEAMPRAT [SEQ ID NO 90] | < 100 µM
2 | SGHWYPCWMARLGELCDMEERA [SEQ ID NO 92] | < 100 µM
3 | AVSHGNWLPCYIAQLGELCDLD [SEQ ID NO 207] | < 100 µM
4 | LHPCWMAQLGELCDLE (disulfide 4-13 (inferred)) [SEQ ID NO 188] | < 100 µM
5 | GQVVETSLPCWEAQLGELCVLD [SEQ ID NO 202] | < 100 µM
6 | ALVGGTFYPCYVAHLGELCDIE (disulfide 10-19 (inferred)) [SEQ ID NO 204] | < 100 µM
7 | WWPCSSAELGEICDFD [SEQ ID NO 191] | < 100 µM
8 | WDVHAIRNPCWLAKLGDLCDLD [SEQ ID NO 197] | < 100 µM
9 | SLPCWMAQLGELCDLV [SEQ ID NO 189] | < 100 µM
10 | WLPCWMAQLGELCVME [SEQ ID NO 187] | < 100 µM
11 | WFPCWMAQLGQLCDLE [SEQ ID NO 89] | < 100 µM
12 | WQPCWMAQLGELCDLE [SEQ ID NO 184] | < 100 µM
13 | WRVTASLQPCWMAQLGELCDLN [SEQ ID NO 201] | < 100 µM
14 | WKPCWLAQLGDLCEME [SEQ ID NO 185] | < 100 µM
15 | YRRERVEFPCWLAQLGELCDKE [SEQ ID NO 206] | < 100 µM
16 | VMSPTRWLPCWIAKLGELCDLE [SEQ ID NO 88] | < 100 µM
17 | WLPCWLAHLGDICDLQ [SEQ ID NO 195] | < 100 µM

Row | Binder | IC50
18 | QPCWLAQVGDLCDLLWPGPL [SEQ ID NO 79] | < 100 µM
19 | WQPCWRAKLGELCDLE [SEQ ID NO 192] | < 100 µM
20 | WLPCWMAKLGDLCELE [SEQ ID NO 186] | < 100 µM
21 | WYPCWMAQLGELCDLQTMGYSH [SEQ ID NO 93] | < 100 µM
22 | WSPCWIATLGELCDLD [SEQ ID NO 193] | < 100 µM
23 | EQGMLGYFPCWKALLGDVCDLD [SEQ ID NO 200] | < 100 µM
24 | WLSPPSYLPCWMAQLGELCDLV [SEQ ID NO 196] | < 100 µM
25 | IDRADGWKPCWIAQVGELCVLE [SEQ ID NO 205] | < 100 µM
26 | YKPCWIAQLGELCELE [SEQ ID NO 183] | < 100 µM
27 | IRSCSPCWSADVGELCDLECEW [SEQ ID NO 91] | < 100 µM
28 | SNPCWMAQLWELCDLE [SEQ ID NO 182] | < 100 µM
29 | WKPCWMAGLGELCELD [SEQ ID NO 190] | < 100 µM
30 | GAGVLHRWPCWMAKLGDLCDLD [SEQ ID NO 198] | < 100 µM
31 | TVGQFEWYPCSTAQLGELCDLD [SEQ ID NO 203] | < 100 µM
32 | WNPCWIAQLGDLCDMV [SEQ ID NO 194] | < 100 µM
33 | DTGRDGWKPCWMALLGELCELE [SEQ ID NO 199] | < 100 µM

Other lines, results leading:

Row | IC50 | Binder
34 | < 100 µM | RLPCWRAQLGDLCELDWGLDMG [SEQ ID NO 217]
35 | < 100 µM | GYPCWLAQLGDYCDLDAGAPSW [SEQ ID NO 219]
36 | < 100 µM | WRRWYPCWMAQLGELCDLDQWT [SEQ ID NO 237]
37 | < 100 µM | WYPCYMASLGELCDLQSSISPR [SEQ ID NO 232]
38 | < 100 µM | WYSCGKAQLGELCDLDVESQPG [SEQ ID NO 222]
39 | < 100 µM | GSGWQPCWMADLGELCDLDNEK [SEQ ID NO 236]
40 | < 100 µM | SLPCWIARLGELCDLDGYDGEE [SEQ ID NO 214]
41 | < 100 µM | FFPCWMGQLGDLCDLEVRSMQK [SEQ ID NO 230]
42 | < 100 µM | IPKGESWFPCWMAAMGELCDLE (disulfide 10-19 (inferred)) [SEQ ID NO 208]
43 | < 100 µM | RRSWYPCRIAQLGELCDLDPRV (disulfide 7-16 (inferred)) [SEQ ID NO 238]
44 | < 100 µM | WYPCWIAQLGEVCDLEKQTGSV [SEQ ID NO 209]
45 | < 100 µM | WTPCWIAHLGDLCDLEPQDDTD [SEQ ID NO 226]
46 | < 100 µM | WKPCWMARLGELCDIEDTKVNA [SEQ ID NO 213]
47 | < 100 µM | WKPCFIASLGELCDLDQGSVEV [SEQ ID NO 227]
48 | < 100 µM | FYPCWKARLGELCELEELRGYY [SEQ ID NO 215]
49 | < 100 µM | WYPCWMAHLGDVCDLESFGQTE [SEQ ID NO 210]
50 | < 100 µM | YVPCYMARLGELCELEANRPGQ [SEQ ID NO 223]

Row | IC50 | Binder
51 | < 100 µM | WYPCWMAQLGELCDHEWPSYGA [SEQ ID NO 233]
52 | < 100 µM | YKPCQMAQLGELCDLDVDNKAE [SEQ ID NO 211]
53 | < 100 µM | YWPCSMASLGELCDLEWQGRLP [SEQ ID NO 231]
54 | < 100 µM | WKPCWLAQLGELCDLERPSTTS [SEQ ID NO 221]
55 | < 100 µM | SKPCWMAQLGELCDLDVWNLQM [SEQ ID NO 218]
56 | < 100 µM | SWPCWMAQLGDLCDLDGSAGAS [SEQ ID NO 220]
57 | < 100 µM | AYRIYPCWKAQLGELCDLDNAD [SEQ ID NO 239]
58 | < 100 µM | WKPCWRAQLGELCDLELGPSER [SEQ ID NO 229]
59 | < 100 µM | WFPCWMAQLGDLCELEPDSVPA [SEQ ID NO 225]
60 | < 100 µM | WKPCWMAALGELCDLERSVGKV [SEQ ID NO 228]
61 | < 100 µM | FKPCWIANLGELCDMDDERSSE (disulfide 4-13 (inferred)) [SEQ ID NO 212]
62 | < 100 µM | QRNSFPCWLAQLGDLCDLGDWA [SEQ ID NO 240]
63 | < 100 µM | WKPCWIADLGELCDLAPAWHEY [SEQ ID NO 216]
64 | < 100 µM | QKGFLPCWRAQLGQLCDMESQY [SEQ ID NO 235]
65 | < 100 µM | SKPCWLAQLGDLCDFDWTAADH [SEQ ID NO 224]
66 | < 100 µM | MGSWLPCWMAQLGDLCDVEGGM [SEQ ID NO 234]

Reference: patent publication US20240101959A1, “USE OF IL-2R-BETA-GAMMA AGONIST PEPTIDES IN CELL MANUFACTURING” (MEDIKINE, INC., priority 2022, published 2024)
